Earlier results in paper PMC3507713.

Target: TRAIL (Homo sapiens) (UniProt P50591)
Sequence of UniProt P50591 (P50591 whole entry): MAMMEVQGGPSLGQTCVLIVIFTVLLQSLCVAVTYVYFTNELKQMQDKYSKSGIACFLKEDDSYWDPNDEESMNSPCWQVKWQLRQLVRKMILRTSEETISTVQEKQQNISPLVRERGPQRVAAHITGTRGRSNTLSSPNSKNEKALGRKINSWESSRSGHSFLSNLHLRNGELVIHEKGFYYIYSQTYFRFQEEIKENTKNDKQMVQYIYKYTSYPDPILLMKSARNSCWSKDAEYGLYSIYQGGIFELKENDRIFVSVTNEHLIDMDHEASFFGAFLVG

Osteoprotegerin (from UniProt O00300)
Kd: 0.4 µM
